Experimental data from publication PMC6050966, “Structure-Function Analysis of the Curli Accessory Protein CsgE Defines Surfaces Essential for Coordinating Amyloid Fiber Formation” (mBio, 2018).

Experiments:
[1] = target: CsgE W48A (E. coli MC4100); assay: native gel or EMSA; native PAGE of purified CsgE (monomer peak) incubated at 4°C or 25°C for various times
[2] = target: CsgE F79A (E. coli MC4100); assay: as above
[3] = target: 6x-His-tagged CsgA lacking the 20-residue N-terminal signal sequence (E. coli) (UniProt P28307)
[4] = target: T1, 6x-His-tagged CsgA lacking the 20-residue N-terminal signal sequence (E. coli, UniProt P28307 21-151); assay: NMR titration; 1H-15N HSQC chemical shift perturbation at one ratio: 15N-labeled WT CsgE (80 µM, 0.4 M arginine) with or without unlabeled CsgA (80 µM); conditions: both partners purified
T1 construct: Freshly purified, unfolded monomer; also called unlabeled CsgA; monomeric CsgA

P0AE95 [5] = assay: SEC-MALS; Superdex 200 Increase 10/300 GL, 0.3 ml/min; protein at 2 mg/ml in 50 mM KHPO4 pH 7.3 with and without 150 mM NaCl
P0AE95 [6] = assay: SEC; Superdex 200 10/300, 50 mM potassium phosphate, 150 mM NaCl, pH 7.4; purified CsgE (20 µM) incubated at 25°C for 5 h to 28 h; monomer to nonamer
P0AE95 [7] = assay: SEC; Superdex 200 10/300, 50 mM potassium phosphate, 150 mM NaCl, pH 7.4; purified CsgE (20 µM) incubated at 37°C; monomer to nonamer and larger oligomers
[8] = target: T2, WT CsgE (6x-His-tagged, E. coli MC4100) (E. coli MC4100), P0AE95; assay: SEC-MALS; Superdex 200 Increase 10/300 GL, 0.3 ml/min; protein at 2 mg/ml in 50 mM KHPO4 pH 7.3 with and without 150 mM NaCl; conditions: remark: other sources report otherwise
T2 chain: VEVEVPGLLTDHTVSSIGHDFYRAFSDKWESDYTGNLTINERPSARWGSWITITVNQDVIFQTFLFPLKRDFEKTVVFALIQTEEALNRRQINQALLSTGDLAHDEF

[9] = target: T2, WT CsgE (6x-His-tagged, E. coli MC4100) …; assay: SEC; Superdex 200 10/300, 50 mM potassium phosphate, 150 mM NaCl, pH 7.4; purified CsgE (20 µM) immediately after purification and kept at 4°C for up to 20 days; monomer to nonamer; conditions: remark: other sources report otherwise
[10] = target: T2, WT CsgE (6x-His-tagged, E. coli MC4100) …; assay: SEC; Superdex 200 10/300, 50 mM potassium phosphate, 150 mM NaCl, pH 7.4; purified CsgE (20 µM) incubated at 25°C for 5 h to 28 h; monomer to nonamer; conditions: remark: other sources report otherwise
[11] = target: T2, WT CsgE (6x-His-tagged, E. coli MC4100) …; assay: SEC; Superdex 200 10/300, 50 mM potassium phosphate, 150 mM NaCl, pH 7.4; purified CsgE (20 µM) incubated at 37°C; monomer to nonamer and larger oligomers; conditions: remark: other sources report otherwise
[12] = target: T2, WT CsgE (6x-His-tagged, E. coli MC4100) …; assay: native gel or EMSA; native PAGE of purified CsgE (monomer peak) incubated at 4°C or 25°C for various times; conditions: remark: other sources report otherwise

T1 sequence (P28307 21-151): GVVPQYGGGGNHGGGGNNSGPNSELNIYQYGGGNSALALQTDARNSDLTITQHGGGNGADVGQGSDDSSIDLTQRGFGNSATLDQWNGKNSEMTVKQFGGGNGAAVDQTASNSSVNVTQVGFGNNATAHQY
Sequence of 6x-His-tagged CsgA lacking the 20-residue N-terminal signal sequence (E. coli) (P28307 21-151): as above

For CsgE W48A (natural protein), which stoichiometry N [1] is on record?
Its stoichiometry N is 9.

For CsgE F79A (natural protein), which stoichiometry N [2] is on record?
The stoichiometry N was 9.

Which Thioflavin T fluorescence of CsgA polymerization (25°C, 48 h): T50 of CsgA with CsgE R47A relative to WT CsgE (% decrease of T50 relative to WT CsgE) [3] does the source give for CsgE R47A (natural protein) here?
The Thioflavin T fluorescence of CsgA polymerization (25°C, 48 h): T50 of CsgA with CsgE R47A relative to WT CsgE (% decrease of T50 relative to WT CsgE) was greater than 50.

B1: WT CsgE (6x-His-tagged, E. coli MC4100) (natural protein, UniProt P0AE95 23-129, looked up)
chain: VEVEVPGLLTDHTVSSIGHDFYRAFSDKWESDYTGNLTINERPSARWGSWITITVNQDVIFQTFLFPLKRDFEKTVVFALIQTEEALNRRQINQALLSTGDLAHDEF
notes: CsgE, periplasmic curli accessory protein of E. coli MC4100; add 21 for the precursor numbering of P0AE95; 15N-labeled (M9 minimal medium with [15N]ammonium sulfate) for NMR; Monomer peak of the S-100 column was used for SEC and native PAGE; also called wild-type CsgE; recombinant WT CsgE
Does B1 bind [4]?
Result: binds

What about the “high-molecular-weight aggregate, percent of the loaded mass” value (P0AE95 [5]) of the same molecule?
The value was “a large, high-molecular-weight aggregate representing 32% of the loaded mass”.

What about the “nonamer peak area as percent of monomer peak area, after 5 h at 25°C” value (P0AE95 [6]) of the same molecule?
Its value is “the nonamer peak area was approximately 20% of the monomer peak area”.

What about the “nonamer peak area as percent of monomer peak area, after 28 h at 25°C” value (P0AE95 [6]) of the same molecule?
The value was “the nonamer peak area was approximately 40% of the monomer peak area”.

And the “loss of monomer peak area within 1 h at 37°C” value (P0AE95 [7])?
The value was “the monomeric peak loses >65% of its area within 1 h of incubation”.

B2: WT CsgE (6x-His-tagged, E. coli MC4100), P0AE95 23-129 (natural protein)
chain: VEVEVPGLLTDHTVSSIGHDFYRAFSDKWESDYTGNLTINERPSARWGSWITITVNQDVIFQTFLFPLKRDFEKTVVFALIQTEEALNRRQINQALLSTGDLAHDEF
B2 was tested. Which small oligomer, percent of the mass [8] did it give?
The small oligomer, percent of the mass was 2%.

What about the monomer, percent of peak area [9] of the same molecule?
Its monomer, percent of peak area is greater than 90%.

And the stoichiometry N [9]?
Its stoichiometry N is 9.

And the stoichiometry N [10]?
The stoichiometry N was 9.

And the stoichiometry N [11]?
The stoichiometry N was 9.

And the stoichiometry N [12]?
Its stoichiometry N is 9.
